Experimental data taken from the DeepSol protein solubility set.

Experiment: soluble on expression in E. coli; label from the status in PepcDB or PDB records

Sequence | soluble on expression in E. coli
MAHHHHHHMTRVLVNREDCSVQVKGDLITFLYATVAKDPLVVASRNVTQLLRSRKDDTAAKLVADGESYVLKFESLRDREGFIESIVRAQEAEQALSNDEWVASTICHAAVDVGVLDQEELRAIMSAAGQRGVEQAFDALETLVDRETFQLLPITEQMENDVLRQTPVLAAIFQERVVDKETKKSFWEAVVRKYFCFSRTFLEEDIQRLEGARSVATAASPPLSGSAATSSLSVINASSMCALPKGAATAMLDTDINEEDLLHLDENVEPLQQSFHGLFAAHRHLPVGSASVLPVNGAALPFPQETAEPSPVYRPRFVGFRVLHQLPSETIEKAALETLRTFWRSSVKQRRSILAKYTRISKKGGGGFIQRMCLEQADRAVQNT | not soluble
MGHHHHHHSHMASVSSATFSGHGARSLLQFLRLVGQLKRVPRTGWVYRNVQRPESVSDHMYRMAVMAMVIKDDRLNKDRKL | not soluble
SRSFRPLYRLIGWIDRFRVNEPVQELVMAKTDVTEFRKLSEAMLRTAHHNVEVFEQQKEFISHASHELQTPLAISRNKLEMLLQDPSLNEQQLEQIYKAIQSINHIVQLNKTLLLYSKIENHQFPEEESIDVNELLHNLAEEYEAIFANRRIRIVWSRSEPMVLSMNPTLAKVLLSNLLKNAYLHNLERDGEIHIDLTSMHCSIANTGVKNALDETLIFERFYHDMKQAHSSGLGLPIARSICQLYGLRLTYRFENGKHTFSIGKEA | not soluble
MVVLGRIAGPHGIRGQIKVIPFTEYVDGLMEYPVWCLSRDEKNWQIVRPATFFIHDNLLIVTLTGYSDRTSASELKGLLVAVPRSQLPPLSKDGEDGYYWTDLIGISVVNMQGEPLGTVAGLFETGANDVLRVRLSGSSKDELIPFVDQVIRQVDLESRQITVDWELGYLEHHHHHH | not soluble
MAHHHHHHMGYLLEREQQRYSRHESAESATAFFASRGQTIDILGRTDPNQIKGNFFGLELYQDAMKVVMQRYTPEKRLTSADLWQPNALGDAPPPRHTLHRKLDDFLYLIVQEGATGKWTIPHTARKDDESLRMTADRAISSQNSEGLDCYVWSNAPQATVFLKDDNTRLFIYAATYLAGRPQFASFEPKPKDHAWVTRHELLQYSDTFKSAELLKALLDISADGTFEA | not soluble
MGSDKIHHHHHHMLVVIPQVLNAEQVGAVRERLEHAGEAWVDGRVTAGYSGAPVKFNQQIDERSDVALECQRLILGMLERNPRFISAALPNIVYPPMFNRYSEGMTFGAHVDGSVRIHPHDGRKLRTDISATLFLSPHDSYDGGELQVQDTYGMHSVKLDAGDMVVYPATSLHQVTPITRGTRVASFFWIQSLIRDDTQRSLLFDMDNAIQRLNQTGADEEARRTLVGCYHNLLRQWSET | not soluble
MSLSPDSAHQQVSLRGGSGSEFMIVDITDGRLLGTIDSAKAMSQTHPGAVYLHQGESFVIDELDLEENLALARPELPDYTTYARSDTDIRITSAPLEDEVFDAGGGLWVANVEVQVTDRVTGYVTRLSDGTTLDATPLYLPPQILQTRAVAYTIDPLALEAMGIPAADIPGALHAAEHAAIGMLPLLATCDRWDIGGVSTALHADTGYPTVFVYDGMDGGAGFADTGFRRFAQWIEATFEVVRSCSCESGCPSCVQSPKCGNGNNPLDKAGAIKLLGAMVTLLGTSEGHHHHHH | not soluble
MLEEEQALLEKVVETLSNDIEEKEEKIEKLRRSYTNGNGALANIYEDYRSGFKSGIGARPGR | not soluble
INMEEIREFAKNFKIRRLSLGLTQTQVGQAMTATEGPAYSQSAISRFEKLDITPKSAQKLKPVLEKWLNEAELRNQEGQQNLMEFVGGEPSKKRKRRTSFTPQAIEALNAYFEKNPLPTGQEITEMAKELNYDREVVRVWFSNRRQTLKNT | soluble
GPGSMEVYRRITERVRGALWAHHGRLMSERQFHRILAFVYNNKYEYQIRFDRMEVVGREWGGRVEVVTTPAGYLKRVRVNPCVEDLTLYQQQQLILSAYASACADGRKLMEQAEMNIYKQFLKDLKPIVMGIRDNPEFYTVPENSIETIGGVLQTGDSNNLCHTHRTIPAAKARQPTDEVRARQEWEQKWINSPRGQSWALTLRGKTYFTLHGPQYRPRGAPGAKKETLPLDIPAPYTAMDEKRLLKKNWMAYLDNKHVAEVMWTRVKIADREKRQRLLQETGRAWHRPINEEAINRW | not soluble
MSAGQRKEQKLIPVERRQIILEMVAEKGIVSIAELTDRINVSHMTIRRDLQKLEQQGAVVLVSGGVQSPGRVAHEPSHQVKTALAMTQKAAIGKLAASLVLPGSCIYLDAGTTTLAIAQHLIHMESLTVVTNDFVIANYLLDNSNCTIIHTGGAVCRENRSCVGEAAATMLCSLMIDQAFISASSWSVRGISTPAEDKVTVKRAIASASRQRVLVCDATKYGQVATWLALPLSEFDQIITDDGLPESASRALAKQDLSLLVAKNELEHHHHHH | soluble
NATQINEELYRLLEDTEILNQEITEGLLKGFEVPDAGVAIQLSKRDVVYPARILIIVLSEMWRFGLTKQSESFLAQVLTTIQKVVTQLKGNDLIPSGVFWLANVRELYSFVVFALNSILTEETFKNGMTDEEYKEYVSLVTELKDDFEALSYNIYNIWLKKLQKQLQKKAINAVVISESLPGFSAGETSGFLNKIFANTEEYTMDDILTFFNSIYWCMKSFHIENEVFHAVVTTLLNYVDAICFNELIMKRNFLSWKRGLQLNYNVTRLEEWCKTHGLTDGTECLQHLIQTAKLLQVRKYTIEDIDILRGICYSLTPAQLQKLISQYQVADYESPIPQEILRYVADIVKKEAALSSSGNDSKGHEHSSSIFITPETGPFTDPFSLIKTRKFDQVEAYIPAWLSLPSTKRIVDLVAQQVV | soluble
LLEIDFAELTLEEIIGIGGFGKVYRAFWIGDEVAVKAARHDPDEDISQTIENVRQEAKLFAMLKHPNIIALRGVCLKEPNLCLVMEFARGGPLNRVLSGKRIPPDILVNWAVQIARGMNYLHDEAIVPIIHRDLKSSNILILQKVENGDLSNKILKITDFGLAREWHRTTKMSAAGAYAWMAPEVIRASMFSKGSDVWSYGVLLWELLTGEVPFRGIDGLAVAYGVAMNKLALPIPSTCPEPFAKLMEDCWNPDPHSRPSFTNILDQLTTI | soluble
MGSSHHHHHHSSGLVPRGSHMARQNLKSTDRAVQQMLDKAKREGIQTVWDRYEAMKPQCGFGETGLCCRHCLQGPCRINPFGDEPKVGICGATAEVIVARGLDRSIAAGAAGHSGHAKHLAHTLKKAVQGKAASYMIKDRTKLHSIAKRLGIPTEGQKDEDIALEVAKAALADFHEKDTPVLWVTTVLPPSRVKVLSAHGLIPAGIDHEIAEIMHRTSMGCDADAQNLLLGGLRCSLADLAGCYMGTDLADILFGTPAPVVTESNLGVLKADAVNVAVHGHNPVLSDIIVSVSKEMENEARAAGATGINVVGICCTGNEVLMRHGIPACTHSVSQEMAMITGALDAMILDYQCIQPSVATIAECTGTTVITTMEMSKITGATHVNFAEEAAVENAKQILRLAIDTFKRRKGKPVEIPNIKTKVVAGFSTEAIINALSKLNANDPLKPLIDNVVNGNIRGVCLFAGCNNVKVPQDQNFTTIARKLLKQNVLVVATGCGAGALMRHGFMDPANVDELCGDGLKAVLTAIGEANGLGGPLPPVLHMGSCVDNSRAVALVAALANRLGVDLDRLPVVASAAEAMHEKAVAIGTWAVTIGLPTHIGVLPPITGSLPVTQILTSSVKDITGGYFIVELDPETAADKLLAAINERRAGLGLPW | soluble
VGVKPVGSDPDFQPELSGAGSRLAVVKFTMRGCGPCLRIAPAFSSMSNKYPQAVFLEVDVHQCQGTAATNNISATPTFQFFRNKVRIDQYQGADAVGLEEKIKQHLE | soluble
PSGFPQNLHVTGLTTSTTELAWDPPVLAERNGRIISYTVVFRDINSQQELQNITTDTRFTLTGLKPDTTYDIKVRAWTSKGSGPLSPSIQSRTMPV | soluble
EIFSQELTQREANVKKVHENLEELQKKLDHTSFAHKEDRDRLEAQIAQKEQEQKAKLAEYDQKVQNEFDARERAEREREAARGDAAAEKQRLASLLKDLEDDASGYNRLRPSKPMLSEEDTNILRQLFLSSAVSGSGKFSFQDLKQVLAKYADTIPEGPLKKLFVMVENDTKGRMSYITLVAVANDLAALVADFRKIDTNSNGTLSRKEFREHFVRLGFDKKSVQDALFRYADEDESDDVGFSEYVHLGLCLLVLRILYAFADFDKSGQLSKEEVQKVLEDAHIPESARKKFEHQFSVVDVDDSKSLSYQEFVMLVLLMFHDD | soluble
MTIKNVICDIDGVLMHDNVAVPGAAEFLHGIMDKGLPLVLLTNYPSQTGQDLANRFATAGVDVPDSVFYTSAMATADFLRRQEGKKAYVVGEGALIHELYKAGFTITDVNPDFVIVGETRSYNWDMMHKAAYFVANGARFIATNPDTHGRGFYPACGALCAGIEKISGRKPFYVGKPSPWIIRAALNKMQAHSEETVIVGDNLRTDILAGFQAGLETILVLSGVSSLDDIDSMPFRPSWIYPSVAEIDVILEHHHHHH | not soluble
MGSDKIHHHHHHVYQDLSRFSMPADFRGKPGWYVQLWWVVQALLFHPSPQIMYGWRRLLLRAFGAQIGKGVIIRPSAQITYPWKLAIGDYAWIGDEVVLYTLGNITIGKNAVVSQRSYICTGSHDFKKEAFDIFSKPIIIDDECWLATDVFVGPGVKISKGIVIGARSSVYKNIEATPGIYTGNPATRVGDR | not soluble
MSLSMSLRDQLLKAGLVNEKQAKQATKQKQKQQRLEHKNQVDKDDSQRQAAEQAKAEKLARDQELNRQQQEKAEKKAKAAQIKQLIEGTRLPKLESDDYYNFVDAKKVKRIAVNDLIRDKLSRGSLAIVSYDGRYEIVPRDAAVKIQERDPRRVVLLNVQSQEPDEDDPYKDYVVPDDLMWEGGSHHHHHH | soluble
MGSDKIHHHHHHYQQQYKMAVHVTPESENDPEWPSKKKWFDASEWLSTPQYIKINDFYVINTRYVPIGDLNSDQIIFYLKKGINGSEKRFSELSVLSDLDNQEFRELMKDKLSSEYLETQFEKETLTPTIDFFLIYFIYNNKRYEVPIRREYSGNKYHYWVLEGSVKKAGYWHERFPTSYSYRKYLNK | not soluble
MSLKGGEYLETAAKVDVVVVDKTGTLTTGRPELTDVEVIEPAYSQGEVLELAARAETASEHPLADAIIRGAQDRGLSTTLVEAAENITGRGIIANVDGQAVAVGSAELLDHEPDSTRILELNAEGKTAMFVGVNGHAIGIVAVADAVRSDSASAIESLHKAGIQVVMATGDAHRVAQNVASKLGVDEVYSELLPEQKLELVRDLQAAGKTVAMVGDGVNDTPALAAADIGVAMGVAGSPAAIETADIALMADRLPRLAHAVTLAKRTVRTMREGHHHHHH | soluble
GSSGSSGMCGRFAQSQTREDYLALLAEDIERDIPYDPEPIGRYNVAPGTKVLLLSERDEHLHLDPVFWGYAPGWWDKPPLINARVETAATSRMFKPLWQHGRAICFADGWFEWKKEGDKKQPFFIYRADGQPIFMAAIGSTPFERGDEAEGFLIVTAAADQGLVDIHDRRPLVLSPEAAREWMRQEISGKEASEIAASGCVPANQFSWHPVSRAVGNVKNQGAELIQPV | soluble
MRYGEKEIKEFDVENMEIWPNDAKNDYIIKITLPEFMCCCPRSGYPDFATIYLEYMPDKFVVELKAIKLYINTFMYRNVSHEASINEIYNTLKDKLKPKWIKVVGDFNPRGNVHTVIECRSDMVVPK | not soluble
MAHHHHHHGMTRTRSGSLAAGGLNWASLPLKLFAGGNAKFWHPADIDFTRDRADWEKLSDDERDYATRLCTQFIAGEEAVTEDIQPFMSAMRAEGRLADEMYLTQFAFEEAKHTQVFRMWLDAVGISEDLHRYLDDLPAYRQIFYAELPECLNALSADPSPAAQVRASVTYNHIVEGMLALTGYYAWHKICVERAILPGMQELVRRIGDDERRHMAWGTFTCRRHVAADDANWTVFETRMNELIPLALRLIEEGFALYGDQPPFDLSKDDFLQYSTDKGMRRFGTISNARGRPVAEIDVDYSPAQLEDTFADEDRRTLAAASA | soluble
